In patent US20230310602A1 (published 2023):

Experiments:
[1] = biological target: T1, HCELL (exofucosylated CD44) on FTVII-treated human MSCs (FuchAdMSCs, adipose-derived); FuchBMMSCs, bone … (human, UniProt P16070 21-742, fucose installed in α(1,3)-linkage onto sialyllactosaminyl glycans of CD44 by fucosyltransferase VII with GDP-fucose (creates sLe^x)); test: cell-based or functional assay
[2] = biological target: T1, HCELL (exofucosylated CD44) on …; test: cell-based or functional assay; remark: listed apart in the source

T1 sequence (P16070 21-742): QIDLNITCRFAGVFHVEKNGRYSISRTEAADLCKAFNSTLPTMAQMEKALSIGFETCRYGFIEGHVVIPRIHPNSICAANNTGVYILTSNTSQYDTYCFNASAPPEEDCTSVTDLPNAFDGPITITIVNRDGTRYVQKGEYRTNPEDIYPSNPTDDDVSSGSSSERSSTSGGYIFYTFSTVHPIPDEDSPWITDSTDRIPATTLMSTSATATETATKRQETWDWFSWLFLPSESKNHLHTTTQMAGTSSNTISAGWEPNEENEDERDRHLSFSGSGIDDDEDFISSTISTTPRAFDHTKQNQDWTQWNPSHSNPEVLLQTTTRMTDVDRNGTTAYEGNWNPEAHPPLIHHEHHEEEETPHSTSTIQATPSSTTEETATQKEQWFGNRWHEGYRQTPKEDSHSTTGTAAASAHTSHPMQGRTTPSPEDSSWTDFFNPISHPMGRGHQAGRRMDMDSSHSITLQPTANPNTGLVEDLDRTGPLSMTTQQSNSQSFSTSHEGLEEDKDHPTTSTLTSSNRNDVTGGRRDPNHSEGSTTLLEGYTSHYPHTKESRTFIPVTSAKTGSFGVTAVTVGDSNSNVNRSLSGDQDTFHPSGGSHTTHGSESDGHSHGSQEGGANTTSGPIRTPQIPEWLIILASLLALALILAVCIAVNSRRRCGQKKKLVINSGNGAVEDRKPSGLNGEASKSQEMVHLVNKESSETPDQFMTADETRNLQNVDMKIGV

IL-10 production of adipose-derived hAdMSCs, ratio of FuchMSCs/UhMSCs for E-selectin exposure [1]: 10 fold
IDO in supernatant, ratio FuchAdMSCs/UhAdMSCs, mE-IG (1 µg/ml) [2]: 6.75 ratio
IDO in supernatant, ratio FuchAdMSCs/UhAdMSCs, mE-IG (5 µg/ml) [2]: 7.72 ratio
IDO in supernatant, ratio FuchBMMSCs/UhBMMSCs, mE-IG (1 µg/ml) [2]: 4.71 ratio
IDO in supernatant, ratio FuchBMMSCs/UhBMMSCs, mE-IG (5 µg/ml) [2]: 4.74 ratio
IL-10 in supernatant, ratio FuchAdMSCs/UhAdMSCs, mE-IG (1 µg/ml) [2]: 12.7 ratio
IL-10 in supernatant, ratio FuchAdMSCs/UhAdMSCs, mE-IG (5 µg/ml) [2]: 16 ratio
IL-10 in supernatant, ratio FuchBMMSCs/UhBMMSCs, mE-IG (1 µg/ml) [2]: 3.87 ratio
IL-10 in supernatant, ratio FuchBMMSCs/UhBMMSCs, mE-IG (5 µg/ml) [2]: 4.85 ratio
NO2^-/NO3^- in supernatant, ratio FuchAdMSCs/UhAdMSCs, mE-IG (1 µg/ml) [2]: 5.12 ratio
NO2^-/NO3^- in supernatant, ratio FuchAdMSCs/UhAdMSCs, mE-IG (5 µg/ml) [2]: 5.9 ratio
NO2^-/NO3^- in supernatant, ratio FuchBMMSCs/UhBMMSCs, mE-IG (1 µg/ml) [2]: 3.31 ratio
NO2^-/NO3^- in supernatant, ratio FuchBMMSCs/UhBMMSCs, mE-IG (5 µg/ml) [2]: 5.14 ratio
TGFβ in supernatant, ratio FuchAdMSCs/UhAdMSCs, mE-IG (1 µg/ml) [2]: 12.2 ratio
TGFβ in supernatant, ratio FuchAdMSCs/UhAdMSCs, mE-IG (5 µg/ml) [2]: 12.4 ratio
TGFβ in supernatant, ratio FuchBMMSCs/UhBMMSCs, mE-IG (1 µg/ml) [2]: 8.11 ratio
TGFβ in supernatant, ratio FuchBMMSCs/UhBMMSCs, mE-IG (5 µg/ml) [2]: 8.5 ratio
B1: Recombinant mouse E-selectin-human Fc chimera (mE-Ig) (Fc fusion, UniProt Q00690 22-557, looked up, not shown: a dimerising Fc or GST)
chain: WYYNASSELMTYDEASAYCQRDYTHLVAIQNKEEINYLNSNLKHSPSYYWIGIRKVNNVWIWVGTGKPLTEEAQNWAPGEPNNKQRNEDCVEIYIQRTKDSGMWNDERCNKKKLALCYTASCTNASCSGHGECIETINSYTCKCHPGFLGPNCEQAVTCKPQEHPDYGSLNCSHPFGPFSYNSSCSFGCKRGYLPSSMETTVRCTSSGEWSAPAPACHVVECEALTHPAHGIRKCSSNPGSYPWNTTCTFDCVEGYRRVGAQNLQCTSSGIWDNETPSCKAVTCDAIPQPQNGFVSCSHSTAGELAFKSSCNFTCEQSFTLQGPAQVECSAQGQWTPQIPVCKAVQCEALSAPQQGNMKCLPSASGPFQNGSSCEFSCEEGFELKGSRRLQCGPRGEWDSKKPTCSAVKCDDVPRPQNGVMECAHATTGEFTYKSSCAFQCNEGFSLHGSAQLECTSQGKWTQEVPSCQVVQCPSLDVPGKMNMSCSGTAVFGTVCEFTCPDDWTLNGSAVLTCGATGRWSGMPPTCEAPVSPTRP
